The text below walks through data of patent US20240270806A1.

The assay has as its target Human IL-12 receptor (human IL-12Rb1 and IL-12Rb2) (human) (UniProt P42701).

rhIL-12, sequence (P29460 23-328 limits assumed): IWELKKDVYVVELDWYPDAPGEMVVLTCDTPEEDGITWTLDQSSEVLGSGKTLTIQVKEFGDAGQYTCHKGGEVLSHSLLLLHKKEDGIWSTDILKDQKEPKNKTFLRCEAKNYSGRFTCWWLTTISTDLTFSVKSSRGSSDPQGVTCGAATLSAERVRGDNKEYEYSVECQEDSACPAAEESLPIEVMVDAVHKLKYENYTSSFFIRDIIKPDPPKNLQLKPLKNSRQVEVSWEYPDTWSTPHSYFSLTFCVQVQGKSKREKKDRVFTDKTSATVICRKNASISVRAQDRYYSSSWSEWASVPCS
rhIL-12, sequence (P29459 23-219 limits assumed): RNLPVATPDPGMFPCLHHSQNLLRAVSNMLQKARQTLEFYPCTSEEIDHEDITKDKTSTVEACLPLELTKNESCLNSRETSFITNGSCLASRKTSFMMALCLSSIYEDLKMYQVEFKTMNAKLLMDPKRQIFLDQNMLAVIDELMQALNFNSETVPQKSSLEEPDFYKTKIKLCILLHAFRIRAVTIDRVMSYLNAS
Human IL-12 receptor (human IL-12Rb1 and IL-12Rb2) (human), sequence (Q99665 24-862, chain 2 of 2, other chains not shown): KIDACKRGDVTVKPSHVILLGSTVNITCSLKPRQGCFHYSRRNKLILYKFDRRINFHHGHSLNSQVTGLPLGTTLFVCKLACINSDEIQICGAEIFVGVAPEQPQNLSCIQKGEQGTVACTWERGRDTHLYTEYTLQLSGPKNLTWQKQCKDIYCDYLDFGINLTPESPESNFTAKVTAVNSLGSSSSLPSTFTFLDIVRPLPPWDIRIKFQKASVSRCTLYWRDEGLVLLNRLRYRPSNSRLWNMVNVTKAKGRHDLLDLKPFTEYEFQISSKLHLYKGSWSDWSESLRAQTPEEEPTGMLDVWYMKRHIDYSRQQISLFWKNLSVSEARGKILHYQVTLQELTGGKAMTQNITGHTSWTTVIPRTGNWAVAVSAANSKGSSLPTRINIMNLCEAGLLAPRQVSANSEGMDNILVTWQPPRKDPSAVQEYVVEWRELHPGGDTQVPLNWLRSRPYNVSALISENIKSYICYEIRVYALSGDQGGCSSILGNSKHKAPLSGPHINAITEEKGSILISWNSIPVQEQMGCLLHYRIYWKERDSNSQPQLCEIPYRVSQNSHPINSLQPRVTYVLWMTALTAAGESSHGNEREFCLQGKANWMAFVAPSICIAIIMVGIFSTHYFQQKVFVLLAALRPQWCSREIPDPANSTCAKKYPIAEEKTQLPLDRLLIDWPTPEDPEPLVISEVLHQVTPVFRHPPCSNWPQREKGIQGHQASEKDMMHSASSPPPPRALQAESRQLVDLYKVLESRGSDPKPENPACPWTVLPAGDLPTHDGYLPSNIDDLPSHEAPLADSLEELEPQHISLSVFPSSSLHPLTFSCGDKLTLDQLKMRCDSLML

“rhIL-12 (from UniProt P29460 23-328; P29459 23-219) (ligand)” yielded an EC50 (read off the curve), IL-12 luciferase reporter assay (+ Protease) of 0.2 nM and an EC50 (read off the curve), IL-12 luciferase reporter assay (without protease) of 0.2 nM.
